Data: US20230203196A1 (MABWELL THERAPEUTICS, published 2023)

T1: TMPRSS6 expressed in transfected HepG2 cells (UniProt Q8IU80 1-811, limits assumed)
T1 sequence (looked up): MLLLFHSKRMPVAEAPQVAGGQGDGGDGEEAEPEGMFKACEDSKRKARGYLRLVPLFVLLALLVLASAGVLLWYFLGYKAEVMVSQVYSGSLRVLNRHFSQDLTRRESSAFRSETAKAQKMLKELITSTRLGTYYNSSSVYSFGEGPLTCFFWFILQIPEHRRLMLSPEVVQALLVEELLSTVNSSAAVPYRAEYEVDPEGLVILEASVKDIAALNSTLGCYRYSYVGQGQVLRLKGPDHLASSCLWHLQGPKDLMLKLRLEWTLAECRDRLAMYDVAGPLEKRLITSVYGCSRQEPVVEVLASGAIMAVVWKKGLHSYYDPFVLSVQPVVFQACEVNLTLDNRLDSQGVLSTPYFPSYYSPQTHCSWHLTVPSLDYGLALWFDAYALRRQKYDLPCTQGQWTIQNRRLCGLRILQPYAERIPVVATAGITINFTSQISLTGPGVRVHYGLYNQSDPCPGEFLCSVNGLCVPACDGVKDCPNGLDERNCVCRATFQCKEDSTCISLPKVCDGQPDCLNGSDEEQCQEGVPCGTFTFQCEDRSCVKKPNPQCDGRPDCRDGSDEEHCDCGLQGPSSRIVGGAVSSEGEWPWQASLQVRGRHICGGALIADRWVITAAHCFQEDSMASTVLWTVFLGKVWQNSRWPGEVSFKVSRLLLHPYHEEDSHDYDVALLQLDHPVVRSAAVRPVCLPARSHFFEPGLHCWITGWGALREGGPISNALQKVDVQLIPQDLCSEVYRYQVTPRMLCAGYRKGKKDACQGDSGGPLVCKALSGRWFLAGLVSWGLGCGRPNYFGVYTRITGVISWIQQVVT


The binders below were run against T1, TMPRSS6 expressed in transfected HepG2 … (assay: cell-based or functional assay).

| Binder | HAMP promoter activity (HAMP-luciferase reporter assay in HepG2 cells expressing TMPRSS6), EC50 [µg/mL] |
| --- | --- |
| MWTx-001 anti-TMPRSS6 antibody (antibody, mouse IgG2a, kappa, V domains shown) VH: QVQLQQPGAELAKPGASVKMSCKASGYTFTSYWITWVKQRPGQDLEWIGNIYPGSGSTYYNEKFKSKATLTVDTSSRTAYMQLSSLTSADSAVYYCAPYDSDYAMDYWGQGTSVTVSS VL: DIKMTQSPSSMYASLGERVTITCKASQDINNYLSWFQQKPGKSPKTLIYRANRLVDGVPSRVSGSGSGQDYSLTISSLEYEDVGIYFCLQYDEFPLTFGAGTKLELKR | 3 |
| humanized anti-TMPRSS6 antibody variant hzMWTx-003Var (antibody, human IgG1, kappa, L234A L235A, V domains shown) VH: QVQLVQSGAEVKKPGASVKVSCKASGFNIEDYYMHWVRQAPGQRLEWMGRIDPEDAETTYSPKFQGRVTIIPDTSANTAYMELSSLRSEDTAVYYCARSIYLDPMDYWGQGTLVTVSS VL: DIQMTQSPKSLSASVGDRVTITCRASQDVTTALAWYQQKPGQSPKLLIYWATTRHSGVPSRFSGSGSGTDFTLTISSLQPEDFATYYCQQHYSTPYTFGQGTKLEIKR | 0.3 |
| humanized anti-TMPRSS6 antibody variant hzMWTx-001Var (antibody, human IgG1, kappa, N297A, V domains shown) VH: EVQLVQSGAEVKKPGASVKVSCKASGYTFTSYWITWVRQAPGQRLEWIGNIYPGSGSTYYNEKFKSKATITRDTSSRTAYMELSSLRSEDTAVYYCAPYDADYAMDYWGQGTLVTVSS VL: DIQMTQSPSSLSASVGDRVTITCKASQDISNYLSWFQQKPGKAPKLLIYRANRLVEGVPSRFSGSGSGTDFTLTISSLQPEDFATYFCLQYDEFPLTFGGGTKVEIKR | 0.8 |

Now from value to binder:

| HAMP promoter activity (HAMP-luciferase reporter assay in HepG2 cells expressing TMPRSS6), EC50 [µg/mL] | Binder |
| --- | --- |
| 0.3 | humanized anti-TMPRSS6 antibody variant hzMWTx-002Var (antibody, human IgG1, kappa, N297A, V domains shown) VH: EVQLVQSGAEVKKPGASVKVSCKASGFNIKDYYIHWVRQATGQGLEWMGRIDPEDAESEYAPKFQGRVTITADTSTDTAYMELSSLRSEDTAVYYCTRGDSMMVTYFDYWGQGTLVTVSS VL: DIQMTQSPSSLSASVGDRVTITCKASQDVSTAVAWYQQKPGKAPKLLIYWAFTRHTGVPSRFSGSGSGTDYALTISSLQPEDFATYYCQQHYRSPWTFGGGTKVEIKR |
| 2 | MWTx-003 anti-TMPRSS6 antibody (antibody, mouse IgG2b, kappa, V domains shown) VH: EVQLQQSGAELVKPGASVKLSCTASGFNIEDYYIHWVKERTEQGLEWIGRIDPEDGETTYAPQFQGKATIIPDTSSNTAYMQLSSLTSEDAAVYYCARSIYLDPMDYWGQGTSVTVSS VL: DIVMTQSHKFMSTSVGDRVSITCKASQDVTTAVAWYQQKPGQSPKILIYWATTRHTGVPDRFTGSISGTTYILTISSVQAEDLALYYCQQHYSTPYTFGGGTKLEIKR |
